The results in this text go back to patent publication US20220025056A1 (INNATE PHARMA, published 2022).

Test [1] concerns the target T1, human ILT2 on primary NK cells (human, UniProt Q8NHL6 24-650). Kind of test: cell-based or functional assay.
For test [2], the target named is T2, human ILT1 (LILRA2) on CHO cells (human, UniProt Q8N149 24-475).
T2 construct: also called CHO ILT1 cell line
Kind of test: flow cytometry, CHO transfectants. Background: A flow cytometer gives signals particle by particle.

Test [3] deals with T3, human ILT3 (LILRB4) on CHO cells (human, UniProt Q8NHJ6 24-443).
T3 construct: also called CHO ILT3 cell line
Kind of test: flow cytometry, CHO transfectants.

Test [4] has as its target T4, human ILT4 (LILRB2) on CHO cells (human, UniProt Q8N423 23-597).
T4 construct: also called CHO ILT4 cell line
Put plainly: flow cytometry, CHO transfectants.

The target in test [5] is T5, human ILT5 (LILRB3) on CHO cells (human, UniProt O75022 24-626).
T5 construct: also called CHO ILT5 cell line
Kind of test: flow cytometry, CHO transfectants.

The target in test [6] is T6, human ILT6 (LILRA3) on CHO cells (human, UniProt Q8N6C8 24-434).
T6 construct: also called CHO ILT6 cell line; human ILT-6 polypeptide
Put plainly: flow cytometry, CHO transfectants.

The target of test [7] is T7, human ILT7 (LILRA4) on CHO cells (human, UniProt P59901 28-494).
T7 construct: also called CHO ILT7 cell line
Put plainly: flow cytometry, CHO transfectants.

Test [8] has as its target T8, human ILT8 (LILRA6) on CHO cells (human, UniProt Q6PI73 24-477).
T8 construct: also called CHO ILT8 cell line
Kind of test: flow cytometry, CHO transfectants.

Test [9] has as its target T9, human ILT2 (LILRB1) expressed at the surface of transfected cells (human, UniProt Q8NHL6 24-650).
T9 construct: also called CHO-ILT2; CHO ILT2 cell line
Kind of test: flow cytometry, CHO-ILT2 cells. On the procedure:
Cells were incubated with various concentrations of unlabeled anti-ILT2 antibodies from 30 μg/ml to 5×10-⁴ μg/ml, for 30 minutes at 4° C. After washes with staining buffer, cells were incubated for 30 min at 4° C. with Goat anti-human H+L AF488 secondary antibody (Jackson Immunoresearch #109-546-088) or Goat anti-mouse H+L AF488 secondary antibody for commercially available antibodies (Jackson Immuoresearch #115-545-146). Fluorescence was measured on an Accury C6 flow cytometer equipped with an HTFC plate loader.

Test [10] addresses T1, human ILT2 on primary NK cells. Put plainly: flow cytometry, primary NK cells.
Test [11] addresses T10, anchored ILT2 D2 domain protein (human).
T10 construct: on CHO cells; the entry includes leader remnant, V5 tag and CD24 GPI anchor signal
Kind of test: flow cytometry, CHO cells with anchored ILT2 domain proteins.

The target in test [12] is T11, anchored ILT2 D1-D2 domain protein (human, UniProt Q8NHL6 24-222).
T11 construct: on CHO cells; the entry includes leader remnant, V5 tag and CD24 GPI anchor signal
Described as above.

Test [13] concerns the target T12, anchored ILT2 D2-D3 domain protein (human, UniProt Q8NHL6 122-321).
T12 construct: on CHO cells; the entry includes leader remnant, V5 tag and CD24 GPI anchor signal
The test is described as above.

The target of test [14] is T13, anchored ILT2 D1-D2-D3 domain protein (human, UniProt Q8NHL6 24-321).
T13 construct: on CHO cells; the entry includes leader remnant, V5 tag and CD24 GPI anchor signal
The description is as above.

Test [15] deals with T14, ILT-2_6xHis recombinant protein (human, UniProt Q8NHL6 24-458).
T14 construct: monomers purified by SEC; also called recombinant 6xHIS tagged ILT2; recombinant human ILT2 proteins
Kind of test: SPR, antibody captured on Protein-A, soluble ILT2 analyte. On the procedure:
(§1) Measurements were performed on a Biacore T200 apparatus (Biacore GE Healthcare) at 25° C. In all Biacore experiments HBS-EP+(Biacore GE Healthcare) and NaOH 10 mM served as running buffer and regeneration buffer respectively. Sensorgrams were analyzed with Biacore T100 Evaluation software. Protein-A was purchased from (GE Healthcare). Human ILT2 recombinant proteins were cloned, produced and purified at Innate Pharma. Protein-A proteins were immobilized covalently to carboxyl groups in the dextran layer on a Sensor Chip CM5. The chip surface was activated with EDC/NHS (N-ethyl-N′-(3-dimethylaminopropyl) carbodiimidehydrochloride and N-hydroxysuccinimide (Biacore GE Healthcare)). Protein-A was diluted to 10 μg/ml in coupling buffer (10 mM acetate, pH 5.6) and injected until the appropriate immobilization level was reached (i.e. 600 RU). Deactivation of the remaining activated groups was performed using 100 mM ethanolamine pH 8 (Biacore GE Healthcare). […] For blank subtraction, cycles were performed again replacing ILT2 proteins with running buffer. The monovalent affinity analysis was conducted following a regular Capture-Kinetic protocol as recommended by the manufacturer (Biacore GE Healthcare kinetic wizard). Seven serial dilutions of human ILT2 proteins, ranging from 1.95 nM to 250 nM were sequentially injected over the captured antibodies and allowed to dissociate for 10 min before regeneration. The entire sensorgram sets were fitted using the 1:1 kinetic binding model or two state reaction model, as a function of the profile of the curves.
Background: SPR reads the build-up and loss of mass on a sensor chip optically.

The target of test [16] is T9, human ILT2 (LILRB1) expressed at the …. Kind of test: flow cytometry titration on HEK293T cells transfected with wild-type ILT2.
The target in the next test is T15, ILT2 mutant 4-1 (human, UniProt Q8NHL6 24-650).
T15 construct: transfected in HEK293T cells
Put plainly: flow cytometry titration on HEK293T cells transfected with ILT2 mutant 4-1.

The target in the next test is T16, ILT2 mutant 4-2 (human, UniProt Q8NHL6 24-650).
T16 construct: transfected in HEK293T cells
Kind of test: flow cytometry titration on HEK293T cells transfected with ILT2 mutant 4-2.

A further test addresses T17, Mutant D4-4.
T17 construct: also called ILT2 mutant 4-4; mutant 4-4
Put plainly: flow cytometry titration on HEK293T cells transfected with ILT2 mutant 4-4.

The target of another test is T18, Mutant D4-1B.
T18 construct: read as S304F; also called ILT2 mutant 4-1b; mutant 4-1b
Kind of test: flow cytometry titration on HEK293T cells transfected with ILT2 mutant 4-1b.

For test [17], the target named is T19, anchored ILT2 D1 domain protein (human).
T19 construct: on CHO cells; the entry includes leader remnant, V5 tag and CD24 GPI anchor signal
Put plainly: flow cytometry on CHO cells expressing the anchored ILT2 D1 domain protein (SEQ ID NO: 46); stacked histograms, axis without numbers.

For test [18], the target named is T20, anchored ILT2 D3 domain protein (human).
T20 construct: on CHO cells; the entry includes leader remnant, V5 tag and CD24 GPI anchor signal
Kind of test: flow cytometry on CHO cells expressing the anchored ILT2 D3 domain protein (SEQ ID NO: 48); stacked histograms, axis without numbers, no control histogram.

Test [19] has as its target T21, anchored ILT2 D3-D4 domain protein (human, UniProt Q8NHL6 223-650).
T21 construct: on CHO cells; the entry includes leader remnant, V5 tag, and the ILT2 transmembrane and cytoplasmic parts
Put plainly: flow cytometry, CHO cells with anchored ILT2 domain proteins.

In test [20] the target is T22, anchored ILT2 D2-D3-D4 domain protein (human, UniProt Q8NHL6 122-650).
T22 construct: on CHO cells; the entry includes leader remnant, V5 tag, and the ILT2 transmembrane and cytoplasmic parts
Described as above.

Test [21] concerns the target T14, ILT-2_6xHis recombinant protein. Put plainly: SPR, antibody captured on Protein-A, soluble ILT2 analyte; two state fit. On the procedure: as §1, with “Seven serial dilutions of human ILT2 proteins, ranging from 1.95 nM to 250 nM were sequentially injected over the captured antibodies and allowed to dissociate for 10 min before regeneration. The entire sensorgram sets were fitted using the 1:1 kinetic binding model or two state reaction model, as a function of the profile of the curves.” left out

The target in another test is T23, ILT2 mutant 1 (human, UniProt Q8NHL6 24-650).
T23 construct: transfected in HEK293T cells; also called M1
Put plainly: flow cytometry titration on HEK293T cells transfected with ILT2 mutant 1.

In a further test the target is T24, ILT2 mutant 2 (human, UniProt Q8NHL6 24-650).
T24 construct: transfected in HEK293T cells; also called M2
Put plainly: flow cytometry titration on HEK293T cells transfected with ILT2 mutant 2.

The target in test [22] is T9, human ILT2 (LILRB1) expressed at the …. Kind of test: flow cytometry titration on HEK293T cells transfected with wild-type ILT2. This is another data set of the same source.
Test [23] concerns the target T25, anchored ILT2 D4 domain protein (human, UniProt Q8NHL6 322-650).
T25 construct: on CHO cells; the entry includes leader remnant, V5 tag, and the ILT2 transmembrane and cytoplasmic parts
Put plainly: flow cytometry on CHO cells expressing the anchored ILT2 D4 domain protein (SEQ ID NO: 49); stacked histograms, axis without numbers.

Like-named read-outs stand apart in the source and are kept apart here. Some results are limits rather than exact numbers.

T20 sequence (chain, as listed by the source limits assumed): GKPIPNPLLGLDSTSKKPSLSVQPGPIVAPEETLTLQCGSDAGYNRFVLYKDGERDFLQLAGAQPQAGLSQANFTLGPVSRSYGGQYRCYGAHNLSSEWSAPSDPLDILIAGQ
T8 sequence (Q6PI73 other isoform, or with tags, fused parts or gaps): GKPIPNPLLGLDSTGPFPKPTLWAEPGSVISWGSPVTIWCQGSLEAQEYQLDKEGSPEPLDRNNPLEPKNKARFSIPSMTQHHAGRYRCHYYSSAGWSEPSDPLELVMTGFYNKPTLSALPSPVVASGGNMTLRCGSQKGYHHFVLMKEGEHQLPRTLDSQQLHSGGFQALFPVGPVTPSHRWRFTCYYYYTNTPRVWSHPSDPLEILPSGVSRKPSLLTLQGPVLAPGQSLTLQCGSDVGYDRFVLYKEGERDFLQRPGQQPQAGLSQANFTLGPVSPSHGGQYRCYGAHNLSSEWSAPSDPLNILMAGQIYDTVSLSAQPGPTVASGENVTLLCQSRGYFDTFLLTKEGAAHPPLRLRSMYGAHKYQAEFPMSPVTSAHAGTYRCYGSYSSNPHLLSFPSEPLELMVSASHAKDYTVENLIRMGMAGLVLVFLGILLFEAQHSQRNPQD
T2 sequence (Q8N149 other isoform, or with tags, fused parts or gaps): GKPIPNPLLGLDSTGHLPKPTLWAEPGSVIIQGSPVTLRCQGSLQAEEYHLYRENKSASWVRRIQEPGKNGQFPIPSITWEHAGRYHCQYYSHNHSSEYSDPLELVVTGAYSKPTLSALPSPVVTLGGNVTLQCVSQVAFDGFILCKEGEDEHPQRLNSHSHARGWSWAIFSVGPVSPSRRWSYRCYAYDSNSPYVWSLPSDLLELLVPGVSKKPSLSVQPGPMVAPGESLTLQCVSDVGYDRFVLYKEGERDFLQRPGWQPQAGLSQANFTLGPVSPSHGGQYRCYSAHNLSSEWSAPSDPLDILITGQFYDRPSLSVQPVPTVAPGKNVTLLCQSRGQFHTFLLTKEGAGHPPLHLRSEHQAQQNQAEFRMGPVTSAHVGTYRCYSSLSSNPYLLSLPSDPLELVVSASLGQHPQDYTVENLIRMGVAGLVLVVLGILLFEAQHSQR
T6 sequence (Q8N6C8 other isoform, or with tags, fused parts or gaps): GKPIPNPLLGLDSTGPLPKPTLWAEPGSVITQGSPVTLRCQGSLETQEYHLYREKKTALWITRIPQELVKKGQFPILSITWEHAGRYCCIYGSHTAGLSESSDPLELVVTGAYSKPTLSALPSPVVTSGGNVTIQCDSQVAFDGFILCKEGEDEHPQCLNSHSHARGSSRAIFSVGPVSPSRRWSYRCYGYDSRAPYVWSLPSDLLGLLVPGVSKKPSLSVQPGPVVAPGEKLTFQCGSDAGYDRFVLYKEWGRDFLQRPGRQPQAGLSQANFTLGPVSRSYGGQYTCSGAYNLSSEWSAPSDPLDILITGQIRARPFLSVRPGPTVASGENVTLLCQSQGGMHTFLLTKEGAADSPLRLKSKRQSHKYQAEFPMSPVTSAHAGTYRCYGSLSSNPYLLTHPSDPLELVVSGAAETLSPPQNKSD
T14 sequence (Q8NHL6 other isoform, or with tags, fused parts or gaps limits assumed): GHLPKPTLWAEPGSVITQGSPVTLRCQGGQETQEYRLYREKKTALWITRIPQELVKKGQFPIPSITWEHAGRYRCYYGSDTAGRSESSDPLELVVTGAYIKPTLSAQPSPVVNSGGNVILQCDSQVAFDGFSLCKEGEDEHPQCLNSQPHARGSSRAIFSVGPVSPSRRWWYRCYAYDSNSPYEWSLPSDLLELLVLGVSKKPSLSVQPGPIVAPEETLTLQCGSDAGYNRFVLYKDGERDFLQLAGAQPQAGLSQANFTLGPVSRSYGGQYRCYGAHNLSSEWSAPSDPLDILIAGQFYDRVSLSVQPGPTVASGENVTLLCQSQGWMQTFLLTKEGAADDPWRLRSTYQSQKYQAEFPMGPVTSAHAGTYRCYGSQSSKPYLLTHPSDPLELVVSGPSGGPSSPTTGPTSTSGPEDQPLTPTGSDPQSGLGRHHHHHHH
T9 sequence (Q8NHL6 24-650): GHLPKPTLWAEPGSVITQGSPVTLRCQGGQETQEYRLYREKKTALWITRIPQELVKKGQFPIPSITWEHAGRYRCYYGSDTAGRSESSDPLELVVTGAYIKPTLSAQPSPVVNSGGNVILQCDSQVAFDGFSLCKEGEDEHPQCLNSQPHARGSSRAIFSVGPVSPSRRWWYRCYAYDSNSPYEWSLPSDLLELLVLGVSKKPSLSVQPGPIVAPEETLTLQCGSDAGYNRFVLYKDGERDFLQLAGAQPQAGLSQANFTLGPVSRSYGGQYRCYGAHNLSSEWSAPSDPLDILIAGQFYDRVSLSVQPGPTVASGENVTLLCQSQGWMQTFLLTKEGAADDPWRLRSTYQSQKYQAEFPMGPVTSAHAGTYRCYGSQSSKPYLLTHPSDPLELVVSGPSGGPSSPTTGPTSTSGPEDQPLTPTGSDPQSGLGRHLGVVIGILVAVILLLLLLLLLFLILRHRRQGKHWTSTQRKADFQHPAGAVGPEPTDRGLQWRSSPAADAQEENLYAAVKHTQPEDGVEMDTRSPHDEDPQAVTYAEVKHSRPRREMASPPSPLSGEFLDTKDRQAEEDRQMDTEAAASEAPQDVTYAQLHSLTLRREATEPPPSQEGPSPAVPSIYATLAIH
T1 sequence (Q8NHL6 24-650): as above
T5 sequence (O75022 other isoform, or with tags, fused parts or gaps): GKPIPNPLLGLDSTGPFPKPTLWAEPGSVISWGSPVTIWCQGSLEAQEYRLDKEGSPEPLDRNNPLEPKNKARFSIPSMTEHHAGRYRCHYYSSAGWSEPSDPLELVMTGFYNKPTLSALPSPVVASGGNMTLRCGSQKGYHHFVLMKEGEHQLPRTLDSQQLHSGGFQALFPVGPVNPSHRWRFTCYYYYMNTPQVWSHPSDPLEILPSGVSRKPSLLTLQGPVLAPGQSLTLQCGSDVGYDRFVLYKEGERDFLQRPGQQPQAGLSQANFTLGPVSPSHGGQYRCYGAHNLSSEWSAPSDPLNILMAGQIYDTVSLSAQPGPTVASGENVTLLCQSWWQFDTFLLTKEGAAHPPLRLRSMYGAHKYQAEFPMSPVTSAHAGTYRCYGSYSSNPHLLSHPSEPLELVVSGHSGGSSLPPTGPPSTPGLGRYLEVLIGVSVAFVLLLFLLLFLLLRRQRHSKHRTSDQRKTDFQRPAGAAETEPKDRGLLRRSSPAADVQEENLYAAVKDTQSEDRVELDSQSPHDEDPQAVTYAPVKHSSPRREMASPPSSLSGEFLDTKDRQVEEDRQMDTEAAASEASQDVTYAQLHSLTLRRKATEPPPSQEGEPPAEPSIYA
T3 sequence (Q8NHJ6 other isoform, or with tags, fused parts or gaps): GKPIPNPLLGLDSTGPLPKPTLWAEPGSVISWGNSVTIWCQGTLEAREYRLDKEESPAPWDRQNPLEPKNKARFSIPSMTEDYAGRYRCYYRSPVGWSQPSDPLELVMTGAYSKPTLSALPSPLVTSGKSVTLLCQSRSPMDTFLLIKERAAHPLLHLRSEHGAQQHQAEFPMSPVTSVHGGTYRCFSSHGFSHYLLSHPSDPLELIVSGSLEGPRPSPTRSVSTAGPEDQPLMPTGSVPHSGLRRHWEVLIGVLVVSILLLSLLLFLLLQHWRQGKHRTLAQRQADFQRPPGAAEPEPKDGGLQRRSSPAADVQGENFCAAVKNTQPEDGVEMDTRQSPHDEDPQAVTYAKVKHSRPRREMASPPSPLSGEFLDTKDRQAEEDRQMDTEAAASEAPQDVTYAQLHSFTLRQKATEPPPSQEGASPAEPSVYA
T12 sequence (Q8NHL6 other isoform, or with tags, fused parts or gaps limits assumed): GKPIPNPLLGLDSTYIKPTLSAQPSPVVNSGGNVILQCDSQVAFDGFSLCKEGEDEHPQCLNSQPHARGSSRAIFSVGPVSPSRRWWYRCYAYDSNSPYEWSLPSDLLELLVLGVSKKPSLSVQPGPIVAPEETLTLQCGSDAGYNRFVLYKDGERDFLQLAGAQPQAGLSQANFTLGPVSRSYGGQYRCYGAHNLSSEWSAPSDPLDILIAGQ
T10 sequence (chain, as listed by the source limits assumed): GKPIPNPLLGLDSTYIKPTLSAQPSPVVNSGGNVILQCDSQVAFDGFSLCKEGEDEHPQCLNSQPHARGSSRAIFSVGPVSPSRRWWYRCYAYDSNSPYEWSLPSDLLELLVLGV
T4 sequence (Q8N423 other isoform, or with tags, fused parts or gaps): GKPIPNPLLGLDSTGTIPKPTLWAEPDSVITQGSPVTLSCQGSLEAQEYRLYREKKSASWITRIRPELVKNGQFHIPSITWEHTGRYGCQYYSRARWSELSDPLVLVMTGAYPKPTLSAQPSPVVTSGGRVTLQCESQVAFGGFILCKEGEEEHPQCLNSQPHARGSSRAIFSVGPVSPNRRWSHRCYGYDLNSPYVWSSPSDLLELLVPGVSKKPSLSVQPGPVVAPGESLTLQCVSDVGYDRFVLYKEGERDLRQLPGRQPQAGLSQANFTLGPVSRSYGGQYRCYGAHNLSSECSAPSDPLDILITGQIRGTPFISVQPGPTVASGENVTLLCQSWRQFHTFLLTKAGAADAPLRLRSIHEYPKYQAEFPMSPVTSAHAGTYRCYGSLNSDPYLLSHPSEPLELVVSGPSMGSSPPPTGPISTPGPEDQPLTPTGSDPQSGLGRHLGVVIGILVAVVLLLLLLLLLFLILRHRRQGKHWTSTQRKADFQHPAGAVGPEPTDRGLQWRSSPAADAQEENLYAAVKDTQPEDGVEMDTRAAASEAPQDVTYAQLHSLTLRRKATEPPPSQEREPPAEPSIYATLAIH
T24 sequence (Q8NHL6 other isoform, or with tags, fused parts or gaps mutant): as the sequence (Q8NHL6 24-650) above, with E34A, R36A, Y76I, A82S, R84L counted along it
T25 sequence (Q8NHL6 other isoform, or with tags, fused parts or gaps limits assumed): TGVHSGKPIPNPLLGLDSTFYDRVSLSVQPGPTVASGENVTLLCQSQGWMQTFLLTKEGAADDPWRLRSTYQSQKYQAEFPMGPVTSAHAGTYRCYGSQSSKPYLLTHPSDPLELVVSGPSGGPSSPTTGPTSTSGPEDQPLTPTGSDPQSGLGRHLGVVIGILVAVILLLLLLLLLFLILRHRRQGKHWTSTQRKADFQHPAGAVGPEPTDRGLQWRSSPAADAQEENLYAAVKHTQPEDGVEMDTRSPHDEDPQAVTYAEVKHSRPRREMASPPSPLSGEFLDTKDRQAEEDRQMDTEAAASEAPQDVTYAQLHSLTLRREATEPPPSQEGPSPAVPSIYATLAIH

B1: 26D8 (antibody, human IgG1, V domains shown)
VH: QVQLQQSGAELVKPGASVKLSCKASGYTFTEHTIHWIKQRSGQGLEWIGWFYPGSGSMKYNEKFKDKATLTADKSSSTVYMELTRLTSEDSAVYFCARHTNWDFDYWGQGTTLTVSS
VL: DIVLTQSPASLAVSLGQRATISCKASQSVDYGGDSYMNWYQQKPGQPPKLLIYAASNLESGIPARFSGSGSGTDLTLNIHPVEEDDAAMYYCQQSNEEPWTFGGGTKLEIK
By EC50 is commonly meant the concentration that produces a half-maximal response. Broadly, the Kd is the concentration at which binding is half-saturated. For orientation: koff means the rate constant with which the complex falls apart. What is called kon is the rate constant with which the complex forms. The EC50 (read off the curve) is the concentration giving half of the maximal effect. A high value points to weaker potency. On to B1, for which the “CD137 expression on ILT2-positive primary NK cells” value in [1] turned out to be 2 fold. For the same molecule, the “CD137 expression on NK cells of urothelial cancer patients with HLA-A2-expressing B cells” value in [1] is > 2 fold. Further, the binding result in test [2], in test [3], in test [4], in test [5], in [6] and in test [7] was “no binding” throughout. The binding result in [8] is on record as “no binding”; in test [11], “no binding”; in test [12] it was “no binding”; in test [13] it was “no binding”; in test [14], “no binding”; in the test with ILT2 mutant 4-1 it was “no binding (tested: about 20 µg/ml)”. The binding result is listed as “no binding (tested: about 20 µg/ml)” with ILT2 mutant 4-2, “binds” in the test with Mutant D4-1B, “no binding” in [17] and “no binding” in test [18]. The EC50 worked out at 0.15 µg/mL in [9] and 0.11 µg/mL in test [10]. Also, the Kd in test [15] stood at 0.4 nM. The koff in [15] was determined as 0.00022 s⁻¹. Further, in [15], the kon was 620000 M⁻¹ s⁻¹. Also, the “EC50 (read off the curve)” value is ~0.3 µg/mL in [16] and ~0.2 µg/mL with Mutant D4-4.

B2: 3H5 (antibody, human IgG1, V domains shown)
VH: QVQLKESGPGLVAPSQSLSITCTVSGFSLTSYGVSWVRQPPGKGLEWLGVIWGDGSTNYHSALISRLSISKDNSKSQVFLKLNSLQTDDTATYYCAKPRWDDYAMDYWGQGTSVTVSS
VL: DIQMTQTTSSLSASLGDRVTISCRASQDISNYLNWYQQKPDGTVKLLIYYTSRLHSGVPSRFSGSGSGTDYSLTISNLEQEDIATYFCQQGNTLWTFGGGTKLEIK
As to B2, the binding result in [2], in test [3], in test [4], in test [5], in test [6] and in test [7] was “no binding” each time. The binding result is recorded as “no binding” in test [8]; “no binding” in [11]; “no binding” in test [13]; “no binding” in test [19]; “no binding” in [20]; “binds” in the test with ILT2 mutant 1. The binding result is “no binding (tested: about 20 µg/ml)” in the test with ILT2 mutant 2, “no binding” in test [23] and “no binding” in [18]. The EC50 in [9] was 0.35 µg/mL; in test [10], 0.48 µg/mL. In addition, the Kd in test [21] amounted to 4.4 nM. In [22], the concentration giving a half-maximal response (EC50 (read off the curve)) is ~0.9 µg/mL.

B3: 27H5 (antibody, human IgG1, V domains shown)
VH: QVQLKESGPGLVAPSQSLSITCTVSGFSLTSYGVSWVRQPPGKGLEWLGVIWGDGNTNYHSALISRLSISKDNSKSQVFLKLNSLQTDDTATYYCARTNWDGWFAYWGQGTLVTVSA
VL: DIVMTQSHKFMSTSVGDRVSITCKASQDVGTAVAWYQQKPGQSPKLLIYWASTRHTGVPDRFTGSGSGTDFTLTISNVQSEDLADYFCQQYRSYPLGTFGGGTKLEIK
Regarding B3, the binding result in [2], in test [3], in test [4], in test [5], in test [6] and in [7] was “no binding” each time. Besides, the binding result in [8] is recorded as “no binding”; in [11] it was “no binding”; in test [13], “no binding”; in test [19], “no binding”; in test [20], “no binding”; with ILT2 mutant 1, “binds”. Besides, the binding result was “no binding (tested: about 20 µg/ml)” with ILT2 mutant 2, “no binding” in [23] and “no binding” in test [18]. Moreover, the midpoint of the response in test [9], the EC50, lay at 0.52 µg/mL. Further, the equilibrium dissociation constant (Kd) in [21] was 13.9 nM.
